Measured values taken from patent US20150376286A1 (Amgen, published 2015).
Numbering of substitutions follows the chain as printed. Blank lines part the entries; values can stand above or below the binder they belong to.

Legend:
[1] = target: T1, human CGRP receptor (CRLR + RAMP1) (human, UniProt Q16602 23-461; O60894 27-148); assay: cell-based or functional assay
[2] = target: T2, cynomolgus CGRP receptor (cynoCRLR + cynoRAMP1) (cynomolgus monkey); assay: cell-based or functional assay
T2 chain 1: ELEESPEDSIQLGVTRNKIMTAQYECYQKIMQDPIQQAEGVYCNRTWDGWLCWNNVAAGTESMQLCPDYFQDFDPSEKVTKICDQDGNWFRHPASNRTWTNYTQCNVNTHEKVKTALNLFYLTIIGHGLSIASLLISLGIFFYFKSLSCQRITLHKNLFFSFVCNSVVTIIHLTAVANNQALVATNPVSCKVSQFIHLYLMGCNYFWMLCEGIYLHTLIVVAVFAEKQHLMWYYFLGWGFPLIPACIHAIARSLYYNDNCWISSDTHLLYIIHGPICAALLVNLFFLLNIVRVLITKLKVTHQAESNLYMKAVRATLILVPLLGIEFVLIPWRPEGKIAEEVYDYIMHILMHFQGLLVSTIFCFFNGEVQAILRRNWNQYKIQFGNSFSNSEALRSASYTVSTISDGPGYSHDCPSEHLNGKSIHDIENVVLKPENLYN
T2 chain 2: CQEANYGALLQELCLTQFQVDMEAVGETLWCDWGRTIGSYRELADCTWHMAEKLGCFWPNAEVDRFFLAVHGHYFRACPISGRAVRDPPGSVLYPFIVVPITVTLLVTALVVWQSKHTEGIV

rat CGRP receptor = rat CGRP receptor (rat, UniProt Q63118 24-464; Q9JJ74 27-148); assay: cell-based or functional assay
[3] = target: human amylin AMY1 receptor (hCTR + hRAMP1) (human, UniProt P30988 25-474); assay: cell-based or functional assay
[4] = target: human adrenomedullin receptor 1 (hCRLR + hRAMP2) (human, UniProt O60895 43-175); assay: cell-based or functional assay
[5] = target: human adrenomedullin receptor 2 (hCRLR + hRAMP3) (human, UniProt O60896 24-148); assay: cell-based or functional assay
[6] = target: T1, human CGRP receptor (CRLR + RAMP1); assay: cell-based or functional assay; remark: listed apart in the source
[7] = target: T1, human CGRP receptor (CRLR + RAMP1); assay: 125I-CGRP competition binding, HTB-10 cell membranes
Procedure: (§1) The plates were incubated at room temperature for 2 hours with shaking at 60 rpm, and then the contents of each well were filtered over 0.5% polyethyleneimine (PEI)-treated (for at least one hour) GF/C 96-well filter plates. The GF/C filter plates were washed six times with ice-cold 50 mM Tris, pH 7.5 and dried in an oven at 55° C. for 1 hour. The bottoms of the GF/C plates were then sealed. 40 μl Microscint™ 20 was added to each well, the tops of the GF/C plates were sealed with TopSeal™-A (a press-on adhesive sealing film), and the GF/C plates were counted with TopCount NXT (Packard). The data were analyzed using Prizm (GraphPad Software Inc.)

[8] = target: T1, human CGRP receptor (CRLR + RAMP1); assay: radioligand competition: 125I-CGRP binding to human CGRP receptor on HTB-10 cell membranes, antibody as competitor
Procedure: as §1

[9] = target: T1, human CGRP receptor (CRLR + RAMP1); assay: FACS on AM-1 CHO huCGRP R cells, KinExA n-curve analysis
Procedure: Briefly, AM-1 CHO huCGRP R-expressing cells, prepared as described above, were plated in 96-well plates at densities of 16,000 or 160,000 cells per well in DMEM medium containing 10% FBS, NEAA, PS, L Glut, NaPyr and 0.05% sodium azide. […] After an overnight incubation at 4° C. in a total volume of 120 μl, on a plate shaker, the cells were washed 2× with PBS+2% FBS, centrifuging and discarding supernatant each time. 100 μl/well of G anti-Hu Fc Cy5 (5 μg/mL; Jackson ImmunoResearch Laboratories Inc., West Grove, Pa., USA) containing 7AAD (5 μl/well) was then added and incubated at 4° C. for 40 min. The cells were washed 2× with PBS+2% FBS, centrifuging and discarding the supernatant each time. 100 μl PBS+2% FBS buffer was then added and analyzed by FACS to determined the binding geomean. The Kd was calculated using KinExA software by taking the negative geomean at each antibody concentration as the amount of free Ab present Rathanaswami, et al., Biochemical and Biophysical Research Communications 334 (2005) 1004-1013.

B1: 1E11 (antibody, human IgG2, lambda, V domains shown)
VH: QVQLVESGGGVVQPGRSLRLSCAASGFTFSSFGMHWVRQAPGKGLEWVAVISFDGSIKYSVDSVKGRFTISRDNSKNTLFLQMNSLRAEDTAVYYCARDRLNYYDSSGYYHYKYYGMAVWGQGTTVTVSS
VL: QSVLTQPPSVSEAPGQKVTISCSGSSSNIGNNYVSWYQQLPGTAPKLLIYDNNKRPSGIPDRFSGSKSGTSATLGITGLQTGDEADYYCGTWDSRLSAVVFGGGTKLTVLG
notes: also called 01E11; 01E11.2
cAMP assay IC50 [1]: 1.77 nM
cAMP assay IC50 [2]: 2.79 nM
cAMP assay IC50 (rat CGRP receptor): > 1000 nM
cAMP assay IC50 [3]: > 1000 nM
cAMP assay IC50 [4]: > 1000 nM
cAMP assay IC50 [5]: > 1000 nM
IC50 (read off the curve) [6]: ~1 nM
Ki [7]: 0.03 nM
IC50 (read off the curve) [8]: ~0.03 nM

B2: 9D4 (antibody, human IgG2, lambda, V domains shown)
VH: B1 VH
VL: B1 VL with E12A, L40F
notes: also called 09D4; 09D4.2
cAMP assay IC50 [1]: 1.4 nM
cAMP assay IC50 [2]: 2.46 nM
cAMP assay IC50 (rat CGRP receptor): > 1000 nM
cAMP assay IC50 [3]: > 1000 nM
cAMP assay IC50 [4]: > 1000 nM
cAMP assay IC50 [5]: > 1000 nM
Ki [7]: 0.023 nM
Kd [9]: 2.5 nM

B4: 4H6 (antibody, human IgG2, kappa, V domains shown)
VH: EVQLVESGGGLVKPGRSLRLSCTASGFTFGDYAMSWFRQAPGKGLEWIGFIRSRAYGGTPEYAASVKGRFTISRDDSKTIAYLQMNSLKTEDTAVYFCARGRGIAARWDYWGQGTLVTVSS
VL: not shown
notes: also called 04H6; 04H6.1
cAMP assay IC50 [1]: 3.78 nM
cAMP assay IC50 [2]: 5.59 nM
cAMP assay IC50 (rat CGRP receptor): > 1000 nM
cAMP assay IC50 [3]: > 1000 nM
cAMP assay IC50 [4]: > 1000 nM
cAMP assay IC50 [5]: > 1000 nM
Ki [7]: 0.052 nM
Kd [9]: 2.4 nM

B6: 2E7 (antibody, human IgG2, kappa, V domains shown)
VH: EVQLLESGGGLVQPGESLRLSCAASGFTFSSYAMSWVRQAPGKGLEWVSAISGSGGRTYYADSVKGRFTISRDNSKNTLYLQMNSLRAEDTAVYYCAKDQREVGPYSSGWYDYYYGMDVWGQGTTVTVSS
VL: DIQMTQSPSSLSASVGDRVTITCRASQGIRNDLGWFQQKPGKAPKRLIYAASSLQSGVPSRFSGSGSGTEFTLTISSLQPEDLATYYCLQYNIYPWTFGQGTKVEIKR
notes: also called 02E7; 02E7.2
cAMP assay IC50 [1]: 6.3 nM
cAMP assay IC50 [2]: 5.51 nM
cAMP assay IC50 (rat CGRP receptor): > 1000 nM
cAMP assay IC50 [3]: > 1000 nM
cAMP assay IC50 [4]: > 1000 nM
cAMP assay IC50 [5]: > 1000 nM
Ki [7]: 0.117 nM
Kd [9]: 1.5 nM

B7: 5F5 (antibody, human IgG2, kappa, V domains shown)
VH: QVQLVESGGGVVQPGRSLRLSCAASGFTFSSYGMHWVRQAPGKGLEWVAVISYDGSHESYADSVKGRFTISRDISKNTLYLQMNSLRAEDTAVYFCARERKRVTMSTLYYYFYYGMDVWGQGTTVTVSS
VL: DIILTQTPLSLSVTPGQPASISCKSSQSLLHSDGKTYLYWYLQKPGQPPQLLIYEVSNRFSGEPDRFSGSGSGTDFTLKISRVEAEDVGTYYCMQSFPLPLTFGGGTKVEIKR
notes: also called 05F5; 05F5.1
cAMP assay IC50 [1]: 4.79 nM
cAMP assay IC50 [2]: 4.78 nM
cAMP assay IC50 (rat CGRP receptor): > 1000 nM
cAMP assay IC50 [3]: > 1000 nM
cAMP assay IC50 [4]: > 1000 nM
cAMP assay IC50 [5]: > 1000 nM
Ki [7]: 0.147 nM

B8: 3C8 (antibody, human IgG2, kappa, V domains shown)
VH: B7 VH
VL: B7 VL with T5A, D33A, E63V, T90I
cAMP assay IC50 [2]: 5.32 nM
cAMP assay IC50 (rat CGRP receptor): > 1000 nM
cAMP assay IC50 [3]: > 1000 nM
cAMP assay IC50 [4]: > 1000 nM
cAMP assay IC50 [5]: > 1000 nM

Further lines, results first:

cAMP assay IC50 [2]: 3.23 nM
cAMP assay IC50 (rat CGRP receptor): > 1000 nM
cAMP assay IC50 [3]: > 1000 nM
cAMP assay IC50 [4]: > 1000 nM
cAMP assay IC50 [5]: > 1000 nM
B3: 10E4 (antibody, human IgG2, lambda, V domains shown)
VH: QVQLVQSGAEVKKPGASVKVSCKASGYTFTDYYMYWVRQAPGQGLEWMGWISPNSGGTNYAQKFQGRVTMTRDTSISTAYMELSRLRSDDTAVYYCVRGGYSGYAGLYSHYYGMDVWGQGTTVTVSS
VL: not shown

cAMP assay IC50 [1]: 1.95 nM
cAMP assay IC50 [2]: 8.41 nM
cAMP assay IC50 (rat CGRP receptor): > 1000 nM
cAMP assay IC50 [3]: > 1000 nM
cAMP assay IC50 [4]: > 1000 nM
cAMP assay IC50 [5]: > 1000 nM
IC50 (read off the curve) [6]: ~6 nM
Ki [7]: 0.033 nM
IC50 (read off the curve) [8]: ~0.1 nM
B5: 13H2 (antibody, human IgG2, kappa, V domains shown)
VH: EVQLVESGGGLVKPGGSLRLSCAASGYTFSTYSMNWVRQAPGKGLEWVSSISSSSSYRYYADSVKGRFTISRDNAKNSLYLQMSSLRAEDTAVYYCAREGVSGSSPYSISWYDYYYGMDVWGQGTTVTVSS
VL: B6 VL with N31K, F36Y, A50G, L83F, I93S, Y94F
notes: also called 13H2.2

cAMP assay IC50 [1]: 2.93 nM
cAMP assay IC50 [2]: 4.13 nM
cAMP assay IC50 (rat CGRP receptor): > 1000 nM
cAMP assay IC50 [3]: > 1000 nM
cAMP assay IC50 [4]: > 1000 nM
cAMP assay IC50 [5]: > 1000 nM
Ki [7]: 0.097 nM
Kd [9]: 2.3 nM
B9: 12E8 (antibody, human IgG2, kappa, V domains shown)
VH: B7 VH
VL: B7 VL with I3T, T14S, K35R, T36N, E63L, T90I
notes: also called 12E8.2
